Among the data in the RNAGym collection of RNA variant scans (doi:10.7554/elife.80360) are self-cleavage values, retold here.

Sequences and labels used below:
B1: Twister Ribozyme (parent)
chain: AACACUGCCAAUGCCGGUCCCAAGCCCGGAUAAAAGUGGAGGGGGCGG

Variants of B1 are the subject of this data set. Put plainly: self-cleavage, relative activity (ratio to wild type); higher = more cleavage; co-transcriptional.
C9G G43A: the self-cleavage amounted to 0.123.

With C19U A23G, the self-cleavage was found to be 0.219.

Consider C25A G41A, for which the self-cleavage was determined as 0.074.

As for C14A A35U, the self-cleavage was found to be 0.789.

As to A2G C14G, the self-cleavage worked out at 0.136.

For U6C A10C, the self-cleavage amounted to 0.772.

With G7C G44U, the self-cleavage was 0.0818.

G36C A40G: the self-cleavage stood at 0.0963.

Turning to C26A G48A, the self-cleavage stood at 0.304.

Regarding G7A G43A, the self-cleavage was determined as 0.176.

For C5G C15G, the self-cleavage worked out at 0.0337.

As for G24A G45A, the self-cleavage was 0.122.

Take A1U C46G: the self-cleavage was 0.0557.

With A1U C46A, the self-cleavage came to 0.0731.

Consider U37C G38U, for which the self-cleavage came out at 0.516.

As for G38A G47A, the self-cleavage is 0.882.

C3G A30U: the self-cleavage came out at 0.427.

On to A1U U6G, for which the self-cleavage turned out to be 0.107.

In the case of U12C G39U, the self-cleavage turned out to be 0.222.

For the variant A23G G43A, the self-cleavage came out at 0.0981.

Take C8G G17A: the self-cleavage came to 0.0824.

Consider G17U C27U, for which the self-cleavage stood at 0.207.

In the case of C3U A30G, the self-cleavage came to 0.422.

Take G17U G42U: the self-cleavage was determined as 0.126.

Consider U12C C14G, for which the self-cleavage was 0.0887.

For the variant G36A G43A, the self-cleavage was determined as 0.14.

For the variant A11G C25A, the self-cleavage was determined as 0.13.

On to G24U A35U, for which the self-cleavage was determined as 0.175.

As for A1C G24C, the self-cleavage is 0.168.

For the variant C14U U37A, the self-cleavage came to 0.83.

On to U6A U12A, for which the self-cleavage was found to be 1.13.

As for A22C C26A, the self-cleavage worked out at 0.46.

On to C8U A32G, for which the self-cleavage came out at 0.385.

For the variant C8U A32U, the self-cleavage came to 0.515.

Turning to C9G U31A, the self-cleavage was 0.648.

In the case of U6A G44U, the self-cleavage was 0.925.

As to A1C A33U, the self-cleavage is 0.268.

Turning to A11C A40C, the self-cleavage stood at 0.14.

As for C26U A40C, the self-cleavage came to 0.131.

For the variant A35C G39C, the self-cleavage stood at 0.153.

As for U6G G16A, the self-cleavage stood at 0.226.

For C14U G17C, the self-cleavage amounted to 0.152.

A2U A23C: the self-cleavage turned out to be 0.107.

For C3U C25G, the self-cleavage amounted to 0.0982.

A33C A40C: the self-cleavage stood at 0.131.

Consider A35C G48A, for which the self-cleavage is 0.917.

Turning to C14A G16A, the self-cleavage amounted to 0.641.

On to C21G A30G, for which the self-cleavage turned out to be 0.0493.

As to C27G U37A, the self-cleavage came to 0.106.

As to U6G A40G, the self-cleavage turned out to be 0.137.

With A22U G41C, the self-cleavage is 0.142.

On to C9U G45U, for which the self-cleavage was 0.328.

Regarding C9U G45A, the self-cleavage amounted to 0.547.

On to C25U G42C, for which the self-cleavage amounted to 0.154.

Regarding C26G G39A, the self-cleavage was 0.0939.

Turning to G24C G28C, the self-cleavage was 0.135.

With C19G A30U, the self-cleavage was found to be 0.456.

As to G17A A34U, the self-cleavage came out at 0.137.

For the variant U31A G41C, the self-cleavage stood at 0.266.

On to G24A G48U, for which the self-cleavage came out at 0.0761.

On to G24A G48C, for which the self-cleavage stood at 0.112.

With A4U U31A, the self-cleavage was 0.143.

For the variant G28C U37A, the self-cleavage worked out at 0.241.

Regarding A11C G17C, the self-cleavage was 0.0996.

Regarding C3G G29U, the self-cleavage amounted to 0.394.

With A4U C27G, the self-cleavage turned out to be 0.115.

As to C5U U6A, the self-cleavage amounted to 0.674.

Regarding C14A G48U, the self-cleavage was determined as 0.887.

For the variant G41U G48U, the self-cleavage was 0.584.

Regarding U6G A10U, the self-cleavage came to 0.204.

Consider A40C G45C, for which the self-cleavage is 0.154.

As to A40C G45A, the self-cleavage was 0.23.

Consider C8A C46G, for which the self-cleavage worked out at 0.353.

As for G13U U18C, the self-cleavage was found to be 0.0744.

Turning to U12G C15G, the self-cleavage is 0.115.

For the variant G13C G16C, the self-cleavage worked out at 0.044.

For the variant G24U G41C, the self-cleavage was 0.0917.

With C8G C20G, the self-cleavage worked out at 0.0475.

As to C27G A33U, the self-cleavage is 0.0804.

Take G7A G44C: the self-cleavage is 0.322.

For the variant A32G, the self-cleavage came to 0.961.

Consider G24A G43C, for which the self-cleavage amounted to 0.107.

On to A10C A30C, for which the self-cleavage worked out at 0.884.

For the variant C27U A40C, the self-cleavage is 0.159.

Take U31A G44U: the self-cleavage is 0.83.

For the variant C15G G39U, the self-cleavage was determined as 0.0441.

As for G24U C26U, the self-cleavage was 0.122.

As for A35G G43C, the self-cleavage came to 0.16.

Take G39C G48C: the self-cleavage worked out at 0.161.

With G39U C46U, the self-cleavage stood at 0.23.

On to C3U G41A, for which the self-cleavage stood at 0.117.

Take A1C G7C: the self-cleavage came out at 0.121.

Take C5A G24A: the self-cleavage was 0.0547.

As for C20U G28U, the self-cleavage was found to be 0.906.

Consider C3U G42U, for which the self-cleavage was 0.0877.

In the case of G17U G28U, the self-cleavage came out at 0.122.

Regarding G7U U37A, the self-cleavage came out at 0.0497.

For the variant A10U A40U, the self-cleavage is 0.111.

With A11C G45U, the self-cleavage was 0.748.

U12A G16A: the self-cleavage worked out at 1.03.

For U12A G16U, the self-cleavage was determined as 1.09.

Regarding C20U C46A, the self-cleavage worked out at 0.784.

For the variant C20U C46G, the self-cleavage amounted to 0.815.

Regarding C5U A11U, the self-cleavage was 0.564.

With A1C A30G, the self-cleavage is 0.206.

Regarding A10C U12G, the self-cleavage came to 1.06.

With G24A G36A, the self-cleavage amounted to 0.0947.

Regarding A2C C3A, the self-cleavage worked out at 0.101.

For C5U U12A, the self-cleavage is 0.943.

A30U G48C: the self-cleavage stood at 1.07.

On to C9G G42C, for which the self-cleavage was 0.199.

For the variant G39A G45U, the self-cleavage is 0.231.

On to A10U A23G, for which the self-cleavage turned out to be 0.461.

On to U12A G48C, for which the self-cleavage came to 1.22.

As for C27G A32U, the self-cleavage came to 0.115.

For the variant A33G G41A, the self-cleavage stood at 0.453.

As for G39U G42C, the self-cleavage was 0.133.

On to C19U A30C, for which the self-cleavage worked out at 0.591.

In the case of C5A U18C, the self-cleavage worked out at 0.106.

For the variant G13C G24C, the self-cleavage amounted to 0.0811.

In the case of G24A C25G, the self-cleavage turned out to be 0.0958.

For the variant C20U G48C, the self-cleavage is 1.04.

A2C A11C: the self-cleavage was determined as 0.0419.

As for G13A A40U, the self-cleavage was 0.209.

Turning to C8A A11C, the self-cleavage was 0.514.

C20U C26U: the self-cleavage worked out at 0.128.

As for C15G G36A, the self-cleavage came out at 0.0815.

Turning to U6C C9U, the self-cleavage came out at 0.0507.

On to A33G G42A, for which the self-cleavage was 0.215.

For the variant C8U A10C, the self-cleavage came out at 0.755.

As to A34C G42U, the self-cleavage was determined as 0.113.

In the case of A11G G17U, the self-cleavage is 0.188.

On to G36C G41A, for which the self-cleavage is 0.134.

As for C3U G28U, the self-cleavage stood at 0.325.

With U12C G47U, the self-cleavage is 0.944.

Take A23U G43C: the self-cleavage was determined as 0.146.

Regarding C5G G36A, the self-cleavage amounted to 0.732.

In the case of C5A C9G, the self-cleavage came out at 0.0413.

As to C21A A30U, the self-cleavage was determined as 0.152.

On to C8G C25A, for which the self-cleavage was 0.0886.

For G28U A40C, the self-cleavage stood at 0.136.

C27A G41U: the self-cleavage is 0.0984.

Turning to C27A G41C, the self-cleavage was 0.152.

As for G41A C46U, the self-cleavage worked out at 0.612.

Turning to G38C G48U, the self-cleavage turned out to be 1.06.

On to C19U G28U, for which the self-cleavage came out at 0.822.

With C21A G28A, the self-cleavage was 0.0792.

On to U12G A33G, for which the self-cleavage came to 0.809.

On to C26A A32G, for which the self-cleavage came out at 0.636.

Consider C26G U37A, for which the self-cleavage was found to be 0.126.

As to A30U U37A, the self-cleavage worked out at 0.742.

For A2G A22C, the self-cleavage stood at 0.129.

On to G13A C20A, for which the self-cleavage was 0.09.

Turning to C15U G16U, the self-cleavage was found to be 0.31.

As to U6G G44U, the self-cleavage is 0.242.

C46A G48U: the self-cleavage worked out at 0.889.

For the variant U6A C27G, the self-cleavage is 0.11.

As for A33C A34U, the self-cleavage is 0.969.

As to U6A A34U, the self-cleavage amounted to 1.04.

As to C20U A23C, the self-cleavage was 0.0767.

As to A34U G43A, the self-cleavage is 0.209.

Take G17C C20G: the self-cleavage turned out to be 0.0846.

C25G G48A: the self-cleavage was found to be 0.193.

C3G G48C: the self-cleavage worked out at 0.65.

For the variant G17A A40G, the self-cleavage worked out at 0.171.

For A22U U37A, the self-cleavage was determined as 0.256.

Take C8G G28A: the self-cleavage came to 0.0928.
